Results published in patent publication US20180086810A1, “T CELL RECEPTOR FUSIONS AND CONJUGATES AND METHODS OF USE THEREOF” (ALTOR BIOSCIENCE CORPORATION, priority 2000, published 2018).

How the values were obtained:
[1] = molecular target: 264 peptide/HLA-A2 complex on T2 cells (human); test: cell-based or functional assay
[2] = molecular target: 149 peptide/HLA-A2 complex on T2 cells (human); test: cell-based or functional assay

- conjugation between CTLL-2 cells and peptide-loaded T2 cells (flow cytometry, percent conjugates) [1]: 3.25%
- conjugation between CTLL-2 cells and peptide-loaded T2 cells (flow cytometry, percent conjugates) [2]: 0.88%
Substance: 264 scTCR-IL-2 fusion protein (from UniProt P60568 21-153)
